Source: the supplement of paper PMC10724198
± gives the standard deviation of the averaged measurements.

system: Saccharomyces cerevisiae; assay: protein stability index of tFT-peptide fusion (C-terminal peptide) (PSI (0-1 scale)); higher = more stable (slower turnover); conditions: genetic background: wild type; temperature: 30 C
Procedure: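 Multiplexed protein stability (MPS) profiling in S. cerevisiae. Random 12-aa peptides (tFT-X12 library) are fused to the C-terminus of a sfGFP-mCherry tandem fluorescent timer, after mCherry and a GGGS linker. Cells are FACS-sorted into 8 mCherry/sfGFP bins and deep-sequenced. The protein stability index (PSI) is the read-weighted bin average, scaled from 0 (unstable) to 1 (stable). Only peptides with >10 reads are reported; cells were grown at 30 °C in SC-His with glucose.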
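Note: PSI is a weighted mean of sequencing reads over stability bins, variants kept only with over 10 reads, mCherry proximal and sfGFP distal, peptide attached via GGGS linker.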

Sequence	protein stability index
ASQTTKAKNTGH	0.6688 ± 0.006
ATATPPAPPPSP	0.686 ± 0.011
ATLCVVSKLGLC	0.589 ± 0.0069
ATSPTPALPPLL	0.743 ± 0.14
ATVDLDLLSTCL	0.7 ± 0.02
ATVPLVTPLPHF	0.697 ± 0.042
AVAPPISTLLPV	0.743 ± 0.04
AVEVRATVWWWW	0.53259 ± 0.00014
AVFHPPPILPPP	0.70154 ± 0.00061
AVFWLRFSRISV	0.618 ± 0.0094
AVFYGRWRGVWE	0.859 ± 0.12
AVGARRRLEVGD	0.722 ± 0.016
AVGCLGKSRATL	0.662 ± 0.0088
AVGLGARHRVAW	0.688 ± 0.016
AVGLGPFGGSRG	0.695 ± 0.0095
AVGRSVVCINRA	0.686 ± 0.041
AVGVCGGGWWWA	0.792 ± 0.098
AVLERGLCCGEY	0.738 ± 0.031
AVLGGAGGGWAG	0.687 ± 0.12
AVLKDFDTKHLY	0.613 ± 0.024
AVMGQRQAESPV	0.693 ± 0.067
AVPGLPLWWQPS	0.746 ± 0.028
AVQSEFGVGFSM	0.736 ± 0.04
AVRELIRASGPG	0.642 ± 0.043
AVRVLLISSSGT	0.641 ± 0.031

Sequence	protein stability index
AVSFGSTLANWA	0.718 ± 0.062
AVSTYGAQAWNH	0.704 ± 0.018
AVVFCSIPCLRV	0.575 ± 0.052
AWDSVNDSDPPR	0.717 ± 0.035
AWEPGGVVAVLL	0.621 ± 0.14
AWGLKRSCRIKL	0.678 ± 0.051
AWNRFVNPRVWS	0.677 ± 0.03
AWRGFVALSFSR	0.695 ± 0.049
AWRGGSRKDVEG	0.7129 ± 0.001
AWRGLAPRFVLT	0.544 ± 0.01
AWSALWGAVSPY	0.7073 ± 0.0027
AWSVRVGGSATA	0.695 ± 0.033
AWVCSPSACGLV	0.834 ± 0.089
AYAPPSALPYPF	0.729 ± 0.0075
AYDIIPGKFKKI	0.652 ± 0.05
AYGGEWGDRGWL	0.688 ± 0.076
AYSPLFPPLLSL	0.649 ± 0.045
AYVFLPINKENR	0.6405 ± 0.0053
AYVHGSINPMQP	0.691 ± 0.011
AYVQPASRSPPP	0.735 ± 0.062
CAGLIDLVGDVS	0.654 ± 0.018
CARSFGLFGTAT	0.694 ± 0.075
CASACPPPPPAT	0.726 ± 0.019
CASGPLQPLPRA	0.753 ± 0.084
CAVGPQSSSCPR	0.56 ± 0.03

Sequence	protein stability index
CAVVSRYQPLSL	0.7092 ± 0.006
CAWRSVRLLIAH	0.506 ± 0.068
CCFHRLRYSRAV	0.647 ± 0.02
CCGGRTWFVCGV	0.699 ± 0.041
CCRANWDFPIPS	0.707 ± 0.027
CCRTMLGSLVRS	0.659 ± 0.012
CCVSLQSNLLFS	0.68 ± 0.026
CDLISPAHLVLG	0.678 ± 0.01
CDRPERRRTHVY	0.655 ± 0.041
CDSRLSGVFKFG	0.6816 ± 0.0026
CDVIGLVRVKRG	0.771 ± 0.047
CDWRSMEWRGCW	0.693 ± 0.0072
CFCGGFGVFVIF	0.593 ± 0.014
CFFFFIFSLFGL	0.515 ± 0.02
CFGRSPWLTINV	0.6171 ± 0.0046
CFIPLCPLSFCI	0.609 ± 0.016
CFLERLAFPGLY	0.633 ± 0.011
CFLSFLLFSSSP	0.558 ± 0.025
CFPPSLVPRPTY	0.673 ± 0.054
CFSRKGIRIKRP	0.734 ± 0.0098
CFVERRCFLLYR	0.562 ± 0.029
CFVSSSRFLSSF	0.692 ± 0.065
CGCVWVSYFFDK	0.655 ± 0.069
CGFLFPCSPSSK	0.689 ± 0.068
CGGCPGCDIHMG	0.655 ± 0.082

Sequence	protein stability index
CGGFGGLYVVVF	0.545 ± 0.014
CGGGGGLWLLEV	0.559 ± 0.015
CGGSLGAPVLVG	0.588 ± 0.042
CGGSWMRGLRDL	0.72 ± 0.043
CGILTWASSSLG	0.688 ± 0.034
CGLCLGGEWLVG	0.701 ± 0.026
CGLRGAGCLARD	0.637 ± 0.019
CGPGGFGGERVG	0.73 ± 0.058
CGRFGRGVDLGN	0.687 ± 0.02
CGRFVGEGGGKV	0.777 ± 0.1
CGRLSNAAEPTC	0.792 ± 0.19
CGRPRGGEPGGA	0.715 ± 0.078
CGVWHGFFGLWL	0.657 ± 0.12
CGVYGRVVEWGG	0.706 ± 0.042
CGWGVWGAKSGR	0.6289 ± 0.0049
CIFSMLLPPFSL	0.687 ± 0.0091
CIFWGSGWDTLV	0.728 ± 0.063
CIIIIGRHSIWG	0.672 ± 0.057
CKCKFLGLSATM	0.613 ± 0.013
CKRKGREEEEKE	0.7361 ± 0.0064
CLCITGIPVQGF	0.653 ± 0.064
CLCLCFLDYKAC	0.5731 ± 0.0051
CLCRAAGARRCG	0.694 ± 0.03
CLESKTGYEVMG	0.7065 ± 0.0052
CLFIAGGSDLSH	0.7 ± 0.039

Sequence	protein stability index
CLFSVENNNILG	0.704 ± 0.0015
CLGLRFDFYGFV	0.702 ± 0.065
CLGLVSNCGLYV	0.674 ± 0.041
CLHTSVYFHLQR	0.669 ± 0.04
CLLLVLCKFGLL	0.556 ± 0.023
CLRRTSLEDRRR	0.704 ± 0.037
CLTSSIFSRSFA	0.632 ± 0.04
CLVSVDYFPPKL	0.75 ± 0.16
CLWRGDEGRVPW	0.7139 ± 0.0026
CMVRGCFNHCGW	0.669 ± 0.024
CNSRVSAVGLII	0.6303 ± 0.0018
CPALSPSPTLAS	0.68 ± 0.15
CPGLCVFFSPDY	0.661 ± 0.044
CPGTSRADFSAV	0.681 ± 0.044
CPLPLPPLHESF	0.674 ± 0.031
CPPPPPPPASPH	0.698 ± 0.074
CPPPTPPAPPLP	0.74 ± 0.033
CPPRPCTASIVR	0.632 ± 0.036
CPRRVAVAGETS	0.697 ± 0.044
CPVFYRYCHPPH	0.707 ± 0.047
CRCVRVGSVVLD	0.632 ± 0.016
CREWNKAGWGNV	0.702 ± 0.014
CRGRGFVVGGRR	0.687 ± 0.035
CRISHPPLGGGS	0.652 ± 0.02
CRRCQRNRVLDG	0.673 ± 0.068

Sequence	protein stability index
CRRHPLTVVPIL	0.619 ± 0.028
CRVSIVPIKRYS	0.578 ± 0.099
CRVVRGGEGLGG	0.652 ± 0.0081
CRWLGELGVWVF	0.637 ± 0.062
CSCSTFWFFFGR	0.724 ± 0.026
CSGEGDQWLGVR	0.7139 ± 0.0028
CSGFPPPPHSSL	0.6812 ± 0.00089
CSGLTLLRFFVW	0.654 ± 0.064
CSGPARERPVRF	0.709 ± 0.062
CSLLFSLNLMPS	0.666 ± 0.063
CSLPPSPAVPPP	0.644 ± 0.022
CSLQCLGWPISS	0.739 ± 0.087
CSNGVPLTVLLM	0.525 ± 0.0057
CSRFPYSHSLSQ	0.716 ± 0.016
CSRLDVSEVVGD	0.663 ± 0.074
CSSVGGYGGFEV	0.616 ± 0.013
CSVCMSSSRLFS	0.733 ± 0.014
CTGDLSHVLFGI	0.725 ± 0.016
CTTSCARWVTTW	0.647 ± 0.02
CTVPGLTPKCIY	0.581 ± 0.042
CTYAPSGRNSHF	0.7656 ± 0.0035
